The source of these data is patent US20250249113A1, “LIGAND-DRUG-CONJUGATES WITH IMPROVED PHARMACOKINETIC AND DRUG RELEASE PROPERTIES” (Debiopharm Research & Manufacturing S.A., priority 2022, published 2025).

Assay in all cases: In vitro cytotoxicity on DLBCL cell lines panel (CellTiter Glo)
What all share (format): cell-based
(In general: Cellular ATP, detected with luciferase, serves as a proxy for viable cell number.)

One assay deals with A3/KAW cells. The settings on record: A3/KAW cell line, 72 hours of incubation, relative IC50. As for the experimental part:
(§1) After 72 hours of incubation, plates were inspected under an inverted microscope to ensure growth of the controls and sterile conditions. Then, 50 μL CellTiter Glo (Promega, G7572) were added prior to luminescence reading as per the manufacturer's instructions. Relative IC50 were calculated using GraphPad Prism.

The test system of another assay is DOHH-2 cells. Conditions: DOHH-2 cell line, 72 hours of incubation, relative IC50. As for the experimental part:
as §1

The next assay has as its system HBL-1 cells. Conditions: HBL-1 cell line, 72 hours of incubation, relative IC50. As for the experimental part:
as §1

The test system of another assay is KARPAS-422 cells. The settings on record: KARPAS-422 cell line, 72 hours of incubation, relative IC50. On the procedure:
as §1

The next assay deals with OCI-LY19 cells. Conditions: OCI-LY19 cell line, 72 hours of incubation, relative IC50. On the procedure:
as §1

In another assay the test system is OCI-LY3 cells. The settings on record: OCI-LY3 cell line, 72 hours of incubation, relative IC50. On the procedure:
as §1

Another assay relates to OCI-LY7 cells. Conditions: OCI-LY7 cell line, 72 hours of incubation, relative IC50. As for the experimental part: as §1
Another assay concerns Pfeiffer cells. The settings on record: Pfeiffer cell line, 72 hours of incubation, relative IC50. As for the experimental part:
as §1

For another assay, the system named is SU-DHL-2 cells. The settings on record: SU-DHL-2 cell line, 72 hours of incubation, relative IC50. As for the experimental part: as §1
A further assay relates to SU-DHL-4 cells. Conditions: SU-DHL-4 cell line, 72 hours of incubation, relative IC50. As for the experimental part: as §1
The test system of another assay is SU-DHL-5 cells. Conditions: SU-DHL-5 cell line, 72 hours of incubation, relative IC50. On the procedure: as §1
In a further assay the test system is SU-DHL-6 cells. The settings on record: SU-DHL-6 cell line, 72 hours of incubation, relative IC50. On the procedure: as §1
In a further assay the test system is SU-DHL-8 cells. The settings on record: SU-DHL-8 cell line, 72 hours of incubation, relative IC50. As for the experimental part: as §1
For a further assay, the system named is Toledo cells. The settings on record: Toledo cell line, 72 hours of incubation, relative IC50. On the procedure:
as §1

The test system of the next assay is U-2932 cells. Conditions: U-2932 cell line, 72 hours of incubation, relative IC50. As for the experimental part: as §1
The subject of the next assay is WSU-DLCL2 cells. The settings on record: WSU-DLCL2 cell line, 72 hours of incubation, relative IC50. On the procedure: as §1
For another assay, the system named is WSU-NHL cells. The settings on record: WSU-NHL cell line, 72 hours of incubation, relative IC50. As for the experimental part: as §1

B1: Debio 1562: Comparative example: naratuximab reacted with crosslinking reagent SMCC and the maytansinoid DM1; DAR 3.5 (conjugate, chains of the INN, looked up)
VH: QVQVQESGPGLVAPSQTLSITCTVSGFSLTTSGVSWVRQPPGKGLEWLGVIWGDGSTNYHPSLKSRLSIKKDHSKSQVFLKLNSLTAADTATYYCAKGGYSLAHWGQGTLVTVSS
VL: DIQMTQSPSSLSVSVGERVTITCRASENIRSNLAWYQQKPGKSPKLLVNVATNLADGVPSRFSGSGSGTDYSLKINSLQPEDFGTYYCQHYWGTTWTFGQGTKLEIK
modifications: SMCC-DM1, DAR 3.5
For orientation: IC50 means the concentration needed to halve the response being measured. High values mean weaker potency, low ones greater potency. Regarding B1, the IC50 in the assay on A3/KAW cells worked out at 33 nM; in the assay on DOHH-2 cells, 0.949 nM; in the assay on HBL-1 cells, 0.217 nM; in the assay on KARPAS-422 cells, 20.5 nM; in the assay on OCI-LY19 cells it was 45.5 nM; in the assay on OCI-LY3 cells, 0.352 nM. In addition, the IC50 turned out to be 79.3 nM in the assay with OCI-LY7 cells; 73.5 nM with Pfeiffer cells; 7.78 nM in the assay with SU-DHL-2 cells; 0.983 nM with SU-DHL-4 cells; 0.901 nM in the assay on SU-DHL-5 cells; 1.74 nM in the assay on SU-DHL-6 cells. Also, the IC50 in the assay on SU-DHL-8 cells worked out at 21.5 nM; in the assay with Toledo cells, 90 nM; in the assay with U-2932 cells, 3.57 nM; in the assay on WSU-DLCL2 cells it was 9.59 nM; in the assay with WSU-NHL cells, 0.19 nM.
